Test results taken from the supplement of paper PMC9170038.

Test system: MS2 coat protein
Assay: apparent KD of MS2 coat protein; designed switch direction (-1 OFF switch, 1 ON switch): -1; higher = weaker reporter binding
Method in brief: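 The reported apparent KD is a per-design median over clusters, from curve fits of normalised cluster fluorescence. Protein titrations used SNAP-549-labelled MS2 coat protein, doubled from 0.7 or 1.5 nM to 3 µM, in Tris-HCl pH 7.5 buffer with KCl, MgCl2, BSA, DTT, tRNA and Tween-20, with no input, 200 uM small-molecule ligand, or an oligonucleotide input. The RNA switches were transcribed on Illumina chips by stalled E. coli RNA polymerase.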

[1] = input ligand: microRNA oligo, concentration not stated
[2] = Eterna round: R95, input ligand: FMN 200 uM
[3] = Eterna round: R95, input ligand: microRNA oligo, concentration not stated
[4] = Eterna round: R95, input ligand: none

Sequence | apparent KD of MS2 coat protein (input ligand: FMN 200 uM) [nM] | apparent KD of MS2 coat protein (input ligand: none) [nM] | apparent KD of MS2 coat protein [1] [nM] | apparent KD of MS2 coat protein [2] [nM] | apparent KD of MS2 coat protein [3] [nM] | apparent KD of MS2 coat protein [4] [nM]
UUGUAGGGAGGAUAUCAGAAGCUCCACAUGAGGAUCACCCAUGUAGCCGCUGCUGGAUUCUGAGAAGGCUUGGGUU [Eternabot (L2) Solution 8] (Eterna round: R97, puzzle: Exclusion 5) | 58.8 | 58.3 | – | – | – | –
UUGUGCACGCUGCGAUCCUACAUGAGGAUCACCCAUGUGGUCUGGUGGCGUGGGUCACCGGACUUGGCUCGUCUUGC [salish99_S_TOV1_R5_073] (Eterna round: R97, puzzle: Sensor, turn-off variant 1) | 28.8 | 28.6 | – | – | – | –
UUGUUAUAUGAAGGAUAUACUUAACAUGAGGAUCACCCAUGUGGUGUUGUGAGUGAGUGAGUUUAGUAGAAGGUCAAGUAUUUU [JMF's solution 52] (Eterna round: R96, puzzle: Exclusion NG 2) | 509 | 377 | 368 | – | – | –
UUUAAAUGAGGAUAUAGGAUCUUAGACAUGAGGAUCACCCAUGUGAAAUCAGACCUAGUCCUAGAAGGCGUAUGAC [Eternabot (L1) Solution 100] (Eterna round: R97, puzzle: Exclusion 5) | 13.5 | 12.4 | – | – | – | –
UUUAAUCAUGUAGGAUAUGCGUGGCGAAGCUAUGCAGAAGGACAUGAGGAUCACCCAUGUUCUAGCGUCUGCGUACAGAUGCGG [13th something] (Eterna round: R96, puzzle: Exclusion NG 1) | 229 | 39.9 | 35.3 | – | – | –
UUUAAUCAUGUAGGAUAUGCGUGGCGAAGCUAUGCAGAAGGACAUGAGGAUCACCCAUGUUCUAGCGUCUGCGUACAGAUGCUA [JL ENG1 1.36] (Eterna round: R96, puzzle: Exclusion NG 1) | 334 | 47 | 33 | – | – | –
UUUAAUCGUGACAUGGGUGACAUGAGGAUCACCCAUGUCACAAGCUUUUUGCUCGUCUUAUAAUUAACCCAUGUCAC [LRO Sensor-off var1-11 mod of Stov1-13-A1 by Brourd] (Eterna round: R97, puzzle: Sensor, turn-off variant 1) | 15.1 | 15.6 | – | – | – | –
UUUAAUUUUUUUUUUUUACAAGCUUUUUGCUCGUCUUAUACAUGAGGAUCACCCAUGUAAAUGAGGGAUAAAUUAUC [JMF 38] (puzzle: Sensor v3, turn-off variant 2) | – | – | – | 15.4 | 21.3 | 15.7
UUUAAUUUUUUUUUUUUACAAGCUUUUUGCUCGUCUUAUACAUGAGGAUCACCCAUGUAGGUGAGGAGUAAAUUAUC [JMF 62] (puzzle: Sensor v3, turn-off variant 2) | – | – | – | 15.5 | 111 | 14.8
UUUAAUUUUUUUUUUUUACAAGCUUUUUGCUCGUCUUAUACAUGAGGAUCACCCAUGUAGGUGGGAGAUAAAUUAUC [JMF 23] (puzzle: Sensor v3, turn-off variant 2) | – | – | – | 87.8 | 392 | 131
UUUAAUUUUUUUUUUUUACAAGCUUUUUGCUCGUCUUAUACAUGAGGAUCACCCAUGUGGAUGGAAGAUAAAUUAUC [JMF 9] (puzzle: Sensor v3, turn-off variant 2) | – | – | – | 16.2 | 18.6 | 16.5
UUUAAUUUUUUUUUUUUACAAGCUUUUUGCUCGUCUUAUACAUGAGGAUCACCCAUGUGGGUAAGAGAUAAAUUAUC [JMF 13] (puzzle: Sensor v3, turn-off variant 2) | – | – | – | 24.9 | 36.3 | 27.8
UUUAAUUUUUUUUUUUUACAAGCUUUUUGCUCGUCUUAUACAUGAGGAUCACCCAUGUGGGUAGAAAGUAAAUUAUC [JMF 46] (puzzle: Sensor v3, turn-off variant 2) | – | – | – | 13.7 | 43.6 | 15.4
UUUAAUUUUUUUUUUUUACAAGCUUUUUGCUCGUCUUAUACAUGAGGAUCACCCAUGUGGGUAGAGAGUAAAUUAUC [JMF 59] (Eterna round: R96, puzzle: Sensor v3, turn-off variant 2) | 21.1 | 19.3 | 102 | – | – | –
UUUAAUUUUUUUUUUUUACAAGCUUUUUGCUCGUCUUAUACAUGAGGAUCACCCAUGUGGGUAGAGAGUAAAUUAUC [JMF 59] (puzzle: Sensor v3, turn-off variant 2) | – | – | – | 16.7 | 80.6 | 16.1
UUUAAUUUUUUUUUUUUACAAGCUUUUUGCUCGUCUUAUACAUGAGGAUCACCCAUGUGGGUGAGGGAUAAAUUAUC [JMF 42] (puzzle: Sensor v3, turn-off variant 2) | – | – | – | 16.3 | 27.2 | 574
UUUAAUUUUUUUUUUUUACAAGCUUUUUGCUCGUCUUAUACAUGAGGAUCACCCAUGUGGGUGGAGAGUAAAUUAUC [JMF 60] (puzzle: Sensor v3, turn-off variant 2) | – | – | – | 45.4 | 47.1 | 56
UUUAAUUUUUUUUUUUUACAAGCUUUUUGCUCGUCUUAUACAUGAGGAUCACCCAUGUGGGUGGGAGGUAAAUUAUC [JMF 78] (puzzle: Sensor v3, turn-off variant 2) | – | – | – | 63.7 | 26.1 | 82.6
UUUACAAGCUAUAGAUCCCACAUGAGGAUCACCCAUGUUCCUGGCCGUGAGGCUAGGUAAACUAUUGCUCGUCUUAU [JL TOV1 3.66] (Eterna round: R97, puzzle: Sensor, turn-off variant 1) | 252 | 294 | – | – | – | –
UUUACAAGCUAUAGAUCCCACAUGAGGAUCACCCAUGUUGCUGCCAACGGUAGCUUUUUAUGGUUUGCUCGUCUUAU [JL TOV1 3.35] (Eterna round: R97, puzzle: Sensor, turn-off variant 1) | 443 | 1860 | – | – | – | –
UUUACAAGCUUUAGAUCCCACAUGAGGAUCACCCAUGUUGCUGCCGUGAGGUAGCUUUUAACUAAUGCUCGUCUUAU [JL TOV1 3.41] (Eterna round: R97, puzzle: Sensor, turn-off variant 1) | 103 | 124 | – | – | – | –
UUUACCAGAGGAUAUGCGAAUAAAUAAAACUUUUUUUUUUAACAUGAGGAUCACCCAUGUAGAAGGCUGCAUUU [Ex2 #29] (Eterna round: R97, puzzle: Exclusion 2) | 25.5 | 28.2 | – | – | – | –
UUUAUACAUGAGGAUCACCCAUGUGAGGAUAUGCUUUAUUAUUAUUAUUAUUAUUAUUGCAGAAGGUACAUUAU [LRO-Excl01-14] (Eterna round: R97, puzzle: Exclusion 1) | 35.7 | 37.7 | – | – | – | –
UUUAUAGUAGGAUAUACAUGAGGAUCACCCAUGUAGUAGGGAAGACCUUGGUGGGAACGUAGAAGGACUUGGAG [Eternabot (L2) Solution 44] (Eterna round: R97, puzzle: Exclusion 3) | 73.3 | 74.2 | – | – | – | –
